Primed or numbered codes have the meaning given here. Side chains are listed from the residue outwards. Ends that are not written are not given here. * marks the point of attachment. dT′ = N3-(decanoic acid)-2'-deoxythymidine (dT probe 19), Cc1cn([C@H]2C[C@H](O)[C@@H](CO)O2)c(=O)n(CCCCCCCCCC(=O)*)c1=O; coumarin = 7-methoxycoumarin-3-carboxylic acid, COc1ccc2cc(C(=O)*)c(=O)oc2c1; 25OHVD3 = 25-hydroxyvitamin D3, linked at its carbon 11; Dansyl = CN(C)c1cccc2c(S(=O)(=O)*)cccc12; 8C = 8-carbon spacer; Ahx = NCCCCCC(=O)O; VD3 = vitamin D3
Experiments:
[1] = molecular target: T1, vitamin D binding protein; experiment: SPR (Biacore 2000), DBP immobilized on CM5, 1:1 model
T1 sequence (P02774 17-474, species assumed, looked up): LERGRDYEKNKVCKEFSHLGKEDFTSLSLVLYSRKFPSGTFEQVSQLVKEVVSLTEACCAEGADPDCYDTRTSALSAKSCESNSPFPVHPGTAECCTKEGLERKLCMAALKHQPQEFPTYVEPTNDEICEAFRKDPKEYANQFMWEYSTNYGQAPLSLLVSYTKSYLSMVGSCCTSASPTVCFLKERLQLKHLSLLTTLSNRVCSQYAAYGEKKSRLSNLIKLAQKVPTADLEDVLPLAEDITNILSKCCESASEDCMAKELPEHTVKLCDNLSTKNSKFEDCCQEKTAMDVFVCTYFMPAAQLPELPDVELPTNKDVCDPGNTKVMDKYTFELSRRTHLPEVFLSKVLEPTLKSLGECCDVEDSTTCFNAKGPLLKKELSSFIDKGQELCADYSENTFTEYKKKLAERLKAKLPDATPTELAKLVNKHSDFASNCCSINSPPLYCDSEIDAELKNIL

thymidine kinase = experiment: fluorescence screen, 2 µM binder, 2 and 4 µM TK; estimate for 'hits'

B1: 4-C15L8-6C-VD3 (dansyl) (designed binder)
chain: Ac-NAADLEAKIRHLREK(Dansyl)LAARGPRDAAQLAEQLARRFERFARAG
modifications: not fully specified (residue 8)
[1]
  Kd: 1800 nM

B2: 4-C37L34-6C-25OHVD3 (dansyl) (designed binder)
chain: NAADLEARIRHLRERLAARGPRDAAQLAEQLARK([Ahx-25OHVD3])FEK(Dansyl)FARAG
modifications: not fully specified (N-terminus, C-terminus)
[1]
  Kd: 190 nM

B3: 1-C15L8-8C-25OHVD3 (dansyl) (designed binder)
chain: Ac-NEADLEAK([8C-25OHVD3])IRHLAEK(Dansyl)LEARGPEDAEQLAEQLARAFEAFARAG
[1]
  Kd: 290 nM

B4: 4-C15L8-6C-25OHVD3 (coumarin) (designed binder)
chain: Ac-NAADLEAK([Ahx-25OHVD3])IRHLREK(coumarin)LAARGPRDAAQLAEQLARRFERFARAG
[1]
  Kd: 50 nM

B5: 2-C10L17-dT (designed binder)
chain: Ac-NAADLEAAIK(Dansyl)HLAEALK(dT′)ARGPVDAAQLAEQLARAFEAFARAG
Thymidine kinase
  Kd: < 20 nM

B6: 3-C15L8-8C-25OHVD3 (dansyl) (designed binder)
chain: Ac-NAADLEAK([8C-25OHVD3])IRHLAEK(Dansyl)LAARGPVDAAQLAEQLARRFEAFARAG
[1]
  Kd: 1100 nM

B7: 4-C37L34-6C-VD3 (dansyl) (designed binder)
chain: NAADLEARIRHLRERLAARGPRDAAQLAEQLARK([Ahx-VD3])FEK(Dansyl)FARAG
modifications: not fully specified (N-terminus, C-terminus)
[1]
  Kd: 900 nM

B8: 4-C10L17-6C-VD3 (dansyl) (designed binder)
chain: Ac-NAADLEARIK(Dansyl)HLRERLKARGPRDAAQLAEQLARAFERFARAG
modifications: not fully specified (residue 17)
[1]
  Kd: 890 nM

B9: 4-C25L22-6C-25OHVD3 (dansyl) (designed binder)
chain: NAADLEARIRHLRERLAARGPK([Ahx-25OHVD3])DAK(Dansyl)QLAEQLARAFERFARAG
modifications: not fully specified (N-terminus, C-terminus)
[1]
  Kd: 750 nM

B10: 3-C15L8-dT (designed binder)
chain: Ac-NAADLEAK(dT′)IRHLAEK(Dansyl)LAARGPVDAAQLAEQLARRFEAFARAG
Thymidine kinase
  Kd: < 20 nM

B11: 2-C15L8-8C-25OHVD3 (dansyl) (designed binder)
chain: Ac-NEADLEAK([8C-25OHVD3])IRHLAEK(Dansyl)LAARGPVDAAQLAEQLARAFEAFARAG
[1]
  Kd: 480 nM

B12: 4-C25L22-6C-VD3 (dansyl) (designed binder)
chain: NAADLEARIRHLRERLAARGPK([Ahx-VD3])DAK(Dansyl)QLAEQLARAFERFARAG
modifications: not fully specified (N-terminus, C-terminus)
[1]
  Kd: 1300 nM

B13: 4-C15L8-8C-25OHVD3 (dansyl) (designed binder)
chain: Ac-NAADLEAK([8C-25OHVD3])IRHLREK(Dansyl)LAARGPRDAAQLAEQLARRFERFARAG
modifications: not fully specified (C-terminus)
[1]
  Kd: 110 nM

B14: 3-C15L8-6C-25OHVD3 (dansyl) (designed binder)
chain: Ac-NAADLEAK([Ahx-25OHVD3])IRHLAEK(Dansyl)LAARGPVDAAQLAEQLARRFEAFARAG
[1]
  Kd: 1300 nM

B15: 4-C10L17-dT (designed binder)
chain: Ac-NAADLEARIK(Dansyl)HLRERLK(dT′)ARGPRDAAQLAEQLARAFERFARAG
Thymidine kinase
  Kd: < 20 nM

B16: 3-C25L22-dT (designed binder)
chain: Ac-NAADLEAAIRHLAERLAARGPK(dT′)DAK(Dansyl)QLAEQLARAFEAFARAG
Thymidine kinase
  Kd: < 20 nM

B17: 3-C10L17-8C-25OHVD3 (dansyl) (designed binder)
chain: Ac-NAADLEARIK(Dansyl)HLAERLK([8C-25OHVD3])ARGPVDAAQLAEQLARAFEAFARAG
[1]
  Kd: 1200 nM

Source: patent US20130261013A1
